Measured values published in the supplement of paper PMC12042874.
± gives the uncertainty stated by the source.

Assay: amyloid nucleation score (Sup35N fusion, yeast selection) (log enrichment); library NNK2; higher = more nucleation; inactive = no reads after selection
Procedure, shortened: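 Three technical output replicates were used for random libraries. Psi-negative yeast expressing peptides of 20 random codons fused to Sup35N were induced with 100 μM copper sulfate for 24 hours and grown 7 days at 30°C on medium lacking adenine and uracil, and input and output plasmid inserts were Illumina-sequenced, excluding sequences with under 100 input reads. The nucleation score is the DiMSum log enrichment of output over input reads, centred on the mode score of non-aggregating sequences.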

Substance	amyloid nucleation score
NISDTSMISNGYCIN	0.154 ± 0.63
NISGATMEVVIYHDAVCESN	-0.361 ± 0.63
NITMMGLVVTFVAISVRLSL	0.959 ± 0.47
NITSSNRGVSFEETGVNAGI	inactive
NIYADNARVWLPRGDRGLEW	0.799 ± 0.74
NKATNKTDRVMKPSAKKDTE	-0.796 ± 0.39
NKFDRFMFPRVR	-0.98 ± 0.35
NKGSPCISCFVENDLYYLKY	-0.707 ± 0.42
NKLWFWMGHTMSVEFDLIDN	inactive
NKRATALCNLHF	inactive
NKSLFMKFCVSLFRLGSYVT	-0.618 ± 0.48
NLCHSNKCLNSRFSITHWV	0.246 ± 0.8
NLCTVVCSDTAVLWTALPRL	9.478 ± 0.062
NLECLYKLFPDFASLIRLCV	0.185 ± 0.8
NLFFVGPCELSRWLGFSNLQ	5.874 ± 0.032
NLFPSQTLYVFRHVGCCG	inactive
NLHFSLNCMIFQPTASRLKH	6.824 ± 0.031
NLKRMFYVGCSIVSRKLIGR	-0.095 ± 0.5
NLNSFMVADYLYGDQVQKVF	0.138 ± 0.8
NLNYLVLTYDVSVWNVYVVL	8.17 ± 0.046
NLRGETRGVKLCLIWDVGRA	0.078 ± 0.55
NLRHKDGTGLLRSWMSIQRR	0.436 ± 0.62

Substance	amyloid nucleation score
NLRRCSHFHLACP	inactive
NLVFCFDFQMSAPISGEMQY	4.87 ± 0.098
NLVFKPFCEPSVVSV	0.099 ± 0.62
NLVILFGKWRRFLFAQWNWF	inactive
NLYAPGSIYSASFFRVMTLG	-1.04 ± 0.48
NMFTETDRILVLFIRCLVDC	0.305 ± 1
NMGIRRFKFYIVNA	-0.965 ± 0.78
NMGSYD	inactive
NMKSWGSVV	-0.145 ± 0.79
NMMGMAYSV	0.063 ± 1.1
NMMISCVNTLADDVFRGGFV	-1.33 ± 0.31
NMTVFT	-0.202 ± 0.22
NMVLWWPIMYHLAWRLGHDV	-0.137 ± 0.38
NMWLCNGSGRHRFWLR	0.269 ± 0.51
NMYNLGFLSYYLKISGYLLD	-1.85 ± 1
NNCNSSSSFIIPVAFTSVIN	-1.67 ± 0.61
NNLLRYSVFNI	inactive
NNMINDGNSMV	0.026 ± 0.39
NNSYIRLS	-0.883 ± 0.45
NNVANW	0.569 ± 0.48
NNWYQTGSVAEASIEPSSMQ	1.6 ± 0.41
NQALTTSPHSYIRFSCTCMF	3.89 ± 0.14

Substance	amyloid nucleation score
NQMCIATFHHMAYT	2.87 ± 0.086
NQNNDHSTWSIFKLCEVGCL	8.986 ± 0.045
NQWSLRGGYWPVVLVCFAWM	inactive
NRDFMCESVRNCTLALMIGS	inactive
NRDTM	-1.13 ± 0.37
NRHWRFG	2.7 ± 0.11
NRKYTILVLDLLEGSLCARE	0.599 ± 0.42
NRMEYV	1.02 ± 0.23
NRNTTFLNYF	1.94 ± 0.25
NRQRRPRLVDKYGASRGVVY	3.31 ± 0.11
NRRMRKAEPLP	0.644 ± 0.81
NRTFSQRSVRLVSCPLLSKA	inactive
NRTSYQNLIDNATTVSIMF	1.55 ± 0.22
NRYTLDVVNFSNNYSISSNR	1.76 ± 0.12
NRYVFLGHCVPVRGATHFLV	0.173 ± 1.1
NSAKKLRRPGATCPGQDGYT	0.864 ± 0.41
NSFFGLTVSKEEYLCFFYMF	inactive
NSGHYFKDKSWCQMRS	0.615 ± 0.66
NSICSNLDDSCEAKRTSRFH	-0.113 ± 0.65
NSIRSKDSDLRRYNPLPSTA	4.46 ± 0.083
NSITSRYNGTDGPESVSQ	-0.299 ± 0.79
NSLMSFWVSVV	0.208 ± 0.34

Substance	amyloid nucleation score
NSLVAVSLSAWWKPGDGSFS	6.29 ± 0.085
NSMNVEHNMYNLFIYMPSFV	7.065 ± 0.07
NSNFCCVGLCTNFAWFVCLM	8.44 ± 0.064
NSRSLTDTHDCMVTGWATRH	-0.159 ± 0.45
NSVDYSWCCNTSRIRMLVNR	1.2 ± 0.1
NSYTFLNT	inactive
NSYVKVHSIVG	inactive
NSYWWFANK	2.54 ± 0.08
NTCGMRSLGKTFRIVSSLGS	0.285 ± 0.43
NTFGLEILRGWSYVCLGRRR	5.323 ± 0.052
NTGGS	-0.51 ± 0.61
NTHGR	4.61 ± 0.073
NTIEGPRYYGTFAISNGVTQ	0.824 ± 0.48
NTLKVQIV	2.94 ± 0.075
NTNVCSSRRNPVCMMVEVVR	inactive
NTVRRVCFAVVEMSASIMDG	0.738 ± 0.42
NVCLGFFPD	0.282 ± 0.8
NVDRRQGETWSNPYDLMRRL	0.291 ± 0.19
NVLGSRLKLMNEGIDLALIK	6.38 ± 0.069
